Experimental data: publication PMC4201484

Legend:
β-TrCP1 = β-TrCP1 (UniProt Q9Y297); assay: co-IP, anti-HA IP, anti-Flag blot; conditions: reference: wild type; sites S525
β-TrCP2 = β-TrCP2 (UniProt Q9UKB1); assay: co-IP, anti-HA IP, anti-Flag blot; conditions: reference: wild type; sites S525

binding against the reference (β-TrCP1): weaker
binding against the reference (β-TrCP2): weaker
Substance: Rap1GAP (from UniProt P47736) S525A
